Measured values reported in PMC6523098 (2019).

Molecular target: T1, His:AtBPM3 (Arabidopsis thaliana (Mouse-ear cress), UniProt O22286)
T1 chain: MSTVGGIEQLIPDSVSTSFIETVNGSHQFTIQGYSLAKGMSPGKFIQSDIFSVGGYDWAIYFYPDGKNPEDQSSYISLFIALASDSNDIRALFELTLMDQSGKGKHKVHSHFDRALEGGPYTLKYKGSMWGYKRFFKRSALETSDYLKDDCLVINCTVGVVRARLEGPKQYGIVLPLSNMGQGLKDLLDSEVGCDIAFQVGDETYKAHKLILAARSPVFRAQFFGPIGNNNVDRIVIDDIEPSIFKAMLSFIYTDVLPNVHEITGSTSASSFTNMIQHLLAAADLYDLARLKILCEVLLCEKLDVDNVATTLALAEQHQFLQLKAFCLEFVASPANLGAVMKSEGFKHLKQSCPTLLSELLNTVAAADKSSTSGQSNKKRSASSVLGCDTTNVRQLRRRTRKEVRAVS
Test: pulldown

B1: GST:AtRAP2.4 (protein)
chain: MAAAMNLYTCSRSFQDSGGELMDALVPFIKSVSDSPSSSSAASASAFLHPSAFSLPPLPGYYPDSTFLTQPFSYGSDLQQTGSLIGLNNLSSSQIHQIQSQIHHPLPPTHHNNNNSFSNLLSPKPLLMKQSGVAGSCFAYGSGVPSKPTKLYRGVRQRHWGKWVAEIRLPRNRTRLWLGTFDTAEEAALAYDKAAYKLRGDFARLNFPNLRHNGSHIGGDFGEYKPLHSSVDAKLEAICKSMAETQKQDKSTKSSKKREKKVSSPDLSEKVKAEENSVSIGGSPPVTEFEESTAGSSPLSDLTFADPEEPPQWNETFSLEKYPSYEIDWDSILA
B1: binds.
